Assay results taken from patent US20260035464A1 (STAIDSON BIOPHARMA, published 2026).
Each block holds one binder with its values, some of them ahead of it.

Key:
[1] = target: T1, human BTLA (Uniprot Q7Z6A9) expressed on cells (human, UniProt Q7Z6A9 31-289); assay: cell-based or functional assay
[2] = target: T2, huBTLA as coated in the binding ELISA of Example 3 (tag not stated) (human, UniProt Q7Z6A9 31-157); assay: ELISA, huBTLA coated at 0.333 ug/mL, anti-human IgG Fc-AP detection
T2 construct: Detection was with anti-human IgG Fc
T2 sequence: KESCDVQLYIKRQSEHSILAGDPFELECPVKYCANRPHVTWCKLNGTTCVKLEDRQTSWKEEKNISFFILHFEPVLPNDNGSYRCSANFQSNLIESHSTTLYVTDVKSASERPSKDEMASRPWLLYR
Method: (§1) BTLA binding of purified recombinant chimeric antibodies by ELISA: The huBTLA and rhesus monkey BTLA antigen binding ELISA was performed on the purified recombinant chimeric antibodies. Briefly, 384-well, clear flat bottom high binding plates (Corning, cat #3700) were coated overnight at 4° C. with 0.333 μg/mL of huBTLA or rhesus monkey BTLA in PBS. The following purified process was performed as described in ELISA binding assay in Example 2, except that the secondary antibody was goat anti human IgG Fc-AP (Southern Biotech, cat #2014-04).

[3] = target: T3, human BTLA extracellular domain with C-terminal mouse IgG2a Fc tag (human; mouse, UniProt Q7Z6A9 31-157); assay: blocking ELISA, huBTLA-mIgG2a Fc coated; competitor huHVEM-His (2 ug/ml)
T3 construct: also called huBTLA with mIgG2a Fc tag; not shown: mouse IgG2a Fc, C-terminal
T3 sequence: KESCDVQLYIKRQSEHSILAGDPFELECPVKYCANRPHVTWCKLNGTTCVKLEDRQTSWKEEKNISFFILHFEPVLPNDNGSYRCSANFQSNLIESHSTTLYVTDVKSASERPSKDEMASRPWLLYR
Method: HVEM blocking by purified recombinant chimeric antibodies by ELISA: Human HVEM (huHVEM) blocking ELISA was performed on purified recombinant chimeric anti-BTLA antibodies. Briefly, 384-well, clear flat bottom high binding plates (Corning, cat #3700) were coated overnight at 4° C. with 0.333 μg/mL purified huBTLA with mIgG2a Fc tag in PBS (coating solution). After removing the coating solution, the plates were blocked by adding blocking buffer and incubated at 37° C. for 1 hour. Plates were then washed 3 times with wash buffer. Serial dilution of purified chimeric antibodies in PBS were added to individual well followed by incubation at 37° C. for 1 hour. Plates were washed 3 times with wash buffer. Then 30 μL per well of 2 μg/ml human HVEM with His tag (Sino Biological, cat #10334-H08H) in assay buffer was added into the reaction and incubated for 1 hour. Plates were washed 3 times with wash buffer. Then 30 μL per well of mouse anti-his-AP (Southern Biotech, cat: 4603-04) at 1:500 dilution in ELISA diluent was added, and incubated at 37° C. for 30 min, then the plates were washed 5 times with wash buffer and developed for 30 minutes with 30 μL per well of pNPP substrate. Plates were analyzed with a Bio-TEK at 405 nm. The blocking IC₅₀ value represents the antibody concentration that inhibited 50% of huHVEM binding to coated human BTLA.

[4] = target: T1, human BTLA (Uniprot Q7Z6A9) expressed …; assay: flow cytometry on Expi293 cells stably overexpressing huBTLA, PE anti-human Fc
Text: To examine the binding of the chimeric anti-BTLA antibodies to huBTLA overexpressing cells, Expi293 cells stably overexpressing huBTLA were used to perform FACS analysis. Briefly, the coding sequence of huBTLA (Uniprot, Q7Z6A9) was cloned into a lentiviral vector and the recombinant virus was packaged according to the instruction of the virus packaging kit (Lenti-X™ Packaging Single Shots, Cat #631275, Takada). The Expi293 cells were transduced with the recombinant virus.
(§2) Expi293 cells stably overexpressing huBTLA were incubated with the chimeric anti-BTLA antibodies 83F2 or 86B7 in PBS containing 0.5% BSA, 1 mM EDTA, and 0.1% sodium azide (FACS buffer) for 30 minutes at 4° C. The cells were washed, and then incubated with 10 nM phycoerythrin (PE) conjugated anti-Human Fc Ab (BioLegend, cat #409304) for 20 minutes at 4° C. Cells were washed and then analyzed by flow cytometry with Attune (ThermoFisher Scientific). Data were analyzed with FlowJo software. Antibody binding is represented as median fluorescence intensity (MFI).

[5] = target: T4, rhesus monkey BTLA extracellular domain protein with His tag (Sino Biological, cat #90250-C08H) (rhesus monkey, UniProt G7MKA9 31-157); assay: ELISA, rhesus monkey BTLA coated at 0.333 ug/mL, anti-human IgG Fc-AP detection
T4 construct: extracellular domain; Bought protein; also called His-tag-rhesus monkey BTLA; not shown: His tag
T4 sequence: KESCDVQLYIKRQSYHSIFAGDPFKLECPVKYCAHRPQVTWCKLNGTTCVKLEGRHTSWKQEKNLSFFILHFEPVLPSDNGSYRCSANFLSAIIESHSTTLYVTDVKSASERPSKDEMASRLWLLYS
Method: as §1

[6] = target: T2, huBTLA as coated in the binding ELISA …; assay: ELISA, plate coated with huBTLA, detection with goat anti-human IgG Fc-AP, OD405
Method: as §1

[7] = target: T5, human BTLA extracellular domain with C-terminal 10xHis tag (human, UniProt Q7Z6A9 31-157); assay: BLI (Octet RED96), antibody captured on AHC biosensor, His-tag-huBTLA in solution, 1:1 model
T5 construct: also called HuBTLA-His; His-tag-huBTLA
T5 sequence: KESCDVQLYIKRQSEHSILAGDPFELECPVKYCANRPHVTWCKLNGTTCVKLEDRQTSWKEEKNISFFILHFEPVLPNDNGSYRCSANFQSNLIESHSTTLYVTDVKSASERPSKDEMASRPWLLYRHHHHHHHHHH
Method: (§3) The following kinetic assay was performed using anti-human IgG Fc capture (AHC) biosensors (ForteBio) in kinetics buffer (PBS, 0.1% Tween-20 and 1% bovine serum albumin): (a) antibody (2 μg/mL) for 300 sec, (b) baseline for 120 sec, (c) association with purified His-tag-huBTLA (2.5, 0.5 and 0 μg/mL) and His-tag-rhesus monkey BTLA (Sino Biologcal, cat #90250-C08H) (2.5, 0.5 and 0 μg/mL) for 420 sec and (d) dissociation for 1200 sec. Data fitting and analysis was performed with Octet data analysis software 8.0 (ForteBio) using a 1:1 binding model after Savitzky-Golay filtering.

[8] = target: T4, rhesus monkey BTLA extracellular domain …; assay: ELISA, plate coated with rhesus monkey BTLA, detection with goat anti-human IgG Fc-AP, OD405
Method: as §1

[9] = target: T1, human BTLA (Uniprot Q7Z6A9) expressed …; assay: flow cytometry blocking on huBTLA-overexpressing Expi293 cells; competitor human HVEM-mouse IgG2a Fc
Method: (§4) Expi293 cells stably overexpressing huBTLA were incubated with chimeric anti-BTLA antibody 83F2 or 86B7 for 30 minutes at 4° C. The cells were washed, and then incubated with human HVEM-mouse IgG2a Fc recombinant protein (Acro Biosystems, cat #HVM-H5255) at […] concentration for 20 minutes at 4° C. The human HVEM bindings were detected by goat anti-mouse Alexa 488 secondary antibody (ThermoFisher, cat #A-11029). Cells were washed and acquired by flow cytometry with Attune. Data were analyzed with FlowJo software. BTLA binding is represented as MFI.

[10] = target: T6, extracellular domain of human BTLA with FAS, expressed on Jurkat cells (human, UniProt Q7Z6A9 31-157; P25445 174-335, limits assumed); assay: cell-based or functional assay
T6 sequence (looked up): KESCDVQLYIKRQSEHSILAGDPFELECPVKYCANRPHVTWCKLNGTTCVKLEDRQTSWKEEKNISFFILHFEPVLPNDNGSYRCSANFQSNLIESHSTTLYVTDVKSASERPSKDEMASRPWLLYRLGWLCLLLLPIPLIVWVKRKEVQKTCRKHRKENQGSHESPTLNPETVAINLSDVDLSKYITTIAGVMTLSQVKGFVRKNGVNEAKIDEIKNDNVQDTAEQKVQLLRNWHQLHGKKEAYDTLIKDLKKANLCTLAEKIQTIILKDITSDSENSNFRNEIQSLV

[11] = target: T1, human BTLA (Uniprot Q7Z6A9) expressed …; assay: cell-based or functional assay; remark: listed apart in the source
[12] = target: T1, human BTLA (Uniprot Q7Z6A9) expressed …; assay: flow cytometry on huBTLA-overexpressing Expi293 cells, MFI
Method: as §2
FACS based binding assays of humanized anti-BTLA antibodies were performed as described above in Example 3.

[13] = target: T5, human BTLA extracellular domain with …; assay: BLI (Octet RED96), antibody on AHC biosensor, His-tag-huBTLA in solution
Method: as §3
(§5) Binding affinities (monovalent Kd) of humanized anti-BTLA antibodies were determined using Biolayer interferometry on the Octet RED96 instrument (ForteBio) as described above in Example 3, except for (c) association with His-tag-huBTLA ([…]) for 420 sec.

[14] = target: T5, human BTLA extracellular domain with …; assay: BLI (Octet RED96), antibody on AHC biosensor, His-tag-huBTLA in solution; column head prints nM, but Koff/Kon shows the values are in M
Method: as §3, §5

[15] = target: T1, human BTLA (Uniprot Q7Z6A9) expressed …; assay: flow cytometry blocking assay on huBTLA-overexpressing Expi293 cells, antibody titrated, soluble human HVEM-mouse IgG2a Fc detected
Method: as §4
FACS based blocking assays of humanized anti-BTLA antibodies were performed as described above in Example 3.

[16] = target: T1, human BTLA (Uniprot Q7Z6A9) expressed …; assay: flow cytometry blocking assay, Expi293-huBTLA cells pre-incubated with titrated SB2003-12, then His-mouse HVEM (concentration not given) and PE anti-His antibody
Method: (§6) Cells were washed and stained with PE conjugated anti-His antibody (Thermofisher Scientific, CAT: TA150130). For antibody blocking assay, the exemplary humanized anti-BTLA antibody SB2003-12 was pre-incubated with the cell line followed by mouse HVEM and anti-His antibody staining. Cells were washed and fixed with 2% PFA and were analyzed by flow cytometry with Attune. MFI of HVEM staining was analyzed with FlowJo software.

[17] = target: T1, human BTLA (Uniprot Q7Z6A9) expressed …; assay: flow cytometry, His-mouse HVEM on Expi293-huBTLA cells, PE anti-His antibody, MFI
Method: as §6

EC50 of recovery of IL-2 production, Raji-HVEM/Jurkat-BTLA coculture [1]: 1.85 nM | EC50 [2]: 0.0564 nM | IC50 [3]: 1.24 nM | EC50 [4]: 1.85 nM | EC50 [5]: 0.0542 nM | EC50 (read off the curve) [6]: ~0.4 nM | Kd [7]: 2.91 nM | koff [7]: 0.000548 s⁻¹ | kon [7]: 188000 M⁻¹ s⁻¹ | EC50 (read off the curve) [8]: ~0.4 nM | IC50 [9]: 0.656 nM
B1: chimeric anti-BTLA antibody 83F2 (antibody, V domains shown)
VH: QVQFQQSGAELARPGASVKLSCKASGYTFTDFWIQWVKQRPGQGLEWIGTIYPGDGDTRENQKFKGRATLTADKSSSTAYMQLSSLESDDSAVYYCARGNGNSWFAYWGQGTLVTVSA
VL: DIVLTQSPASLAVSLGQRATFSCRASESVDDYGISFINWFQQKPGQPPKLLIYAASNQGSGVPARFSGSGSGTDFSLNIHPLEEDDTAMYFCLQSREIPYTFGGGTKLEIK

EC50 of inhibition of huHVEM-Fc-induced apoptosis, Jurkat-huBTLA-FAS cells (ATP luminescence) [10]: 0.0614 nM | EC50 of recovery of IL-2 production, Raji-HVEM/primary human T cell coculture [11]: 4.91 nM | EC50 (read off the curve) [12]: ~0.8 nM | koff [13]: 8.05e-05 s⁻¹ | kon [13]: 418000 M⁻¹ s⁻¹ | Kd [14]: 0.198 nM | IC50 (read off the curve) [15]: ~0.4 nM | IC50 (read off the curve) [16]: ~2 nM
B2: humanized anti-BTLA antibody SB2003-12 (antibody, V domains shown)
VH: QVTLKESGPTLVKPTQTLTLTCTFSGFSLSTFGMGVSWIRQPPGKALEWLAHIYWDDDKRFNPSLKSRLTITKDTSKNQVVLTMTNMDPVDTATYYCAHGNWDGETYFDYWGQGTLVTVSS
VL: DVVMTQSPLSLPVTLGQPASISCKSTQSLLDSDGKTYLNWLQQRPGQSPRSLIYLVSKLDSGVPDRFSGSGSGTDFTLKISRVEAEDVGVYYCWQGTHFPWTFGQGTKVEIK

EC50 (read off the curve) [17]: ~2 nM
B3: His-mouse HVEM protein (Sino Biological, cat #10567-M03H) (ligand, UniProt Q80WM9 39-206, looked up)
chain: QPSCRQEEFLVGDECCPMCNPGYHVKQVCSEHTGTVCAPCPPQTYTAHANGLSKCLPCGVCDPDMGLLTWQECSSWKDTVCRCIPGYFCENQDGSHCSTCLQHTTCPPGQRVEKRGTHDQDTVCADCLTGTFSLGGTQEECLPWTNCSAFQQEVRRGTNSTDTTCSSQ
notes: Bought protein; also called musHVEM; not shown: His tag
